Laboratory results as given in article PMC6599006, “Rational design using sequence information only produces a peptide that binds to the intrinsically disordered region of p53” (Scientific Reports, 2019).

Legend:
Experiment in all cases: fluorescence anisotropy
Conditions in all cases: 2 mM Mg2+, 20 mM HEPES pH 7.9, 100 mM KCl, 2 mM MgCl2, 0.5 mM EDTA, 1 mM DTT, 0.2 mg/mL BSA, 5 nM 6-FAM-DNA, 25 C
[1] = tested on: FL-p53 (thermostable, cysteine-modified mutant) (human)
[2] = tested on: TetCT mutant (human)
[3] = tested on: CoreTet mutant (human)

Substance	Kd ([1]; 75 uM DP6)	Kd ([1]; 150 uM DP6)	Kd ([1]; 300 uM DP5)	Kd ([1]; 300 uM DP6)	Kd ([1]; 450 uM DP6)	Kd ([1]; 600 uM DP5)	Kd ([1]; 600 uM DP6)	Kd ([1]; no DP5 (DP5 series))	Kd ([1]; no DP6)	Kd ([2]; 75 uM DP6)	Kd ([2]; no DP6)	Kd ([3]; 600 uM DP6)	Kd ([3]; no DP6)
nspDNA (random sequence)	32 nM	57 nM	55 nM	90 nM	130 nM	61 nM	160 nM	49 nM	24 nM	340 nM	110 nM	–	–
spDNA (p21)	9.2 nM	12 nM	8.5 nM	20 nM	22 nM	5.3 nM	21 nM	6.6 nM	7.2 nM	–	–	13 nM	19 nM
